Test results as given in patent publication US20230265151A1, “GIP/GLP1 CO-AGONIST COMPOUNDS” (priority 2020, published 2023).
*1 amine or outer side, *2 acyl side, *3 side chain or, on linkers, in order; H or OH if unused. Where no end group is shown, it is not given here. Side-chain parts run from the residue outwards. [ ]: non-standard residue; d: D form. The star is where a group is joined. Butanoyl(4-(4-tBuPh)) = CC(C)(C)c1ccc(CCCC(=O)*)cc1; αMePhe(2-F) = C[C@](N)(Cc1ccccc1F)C(=O)O; γGlu = O=C(O)[C@H](CCC(=O)[*:2])N[*:1]; C14 diacid = O=C(O)CCCCCCCCCCCCC(=O)*; αMeY = C[C@](N)(Cc1ccc(O)cc1)C(=O)O; αMeF = C[C@](N)(Cc1ccccc1)C(=O)O; αMeL = CC(C)C[C@](C)(N)C(=O)O; Lauroyl = CCCCCCCCCCCC(=O)*; Orn = NCCC[C@H](N)C(=O)O; AEEA = NCCOCCOCC(=O)O; Aib = CC(C)(N)C(=O)O

T1: human glucose-dependent insulinotropic polypeptide (GIP) receptor (human, UniProt P48546 22-466)
T1 sequence (looked up): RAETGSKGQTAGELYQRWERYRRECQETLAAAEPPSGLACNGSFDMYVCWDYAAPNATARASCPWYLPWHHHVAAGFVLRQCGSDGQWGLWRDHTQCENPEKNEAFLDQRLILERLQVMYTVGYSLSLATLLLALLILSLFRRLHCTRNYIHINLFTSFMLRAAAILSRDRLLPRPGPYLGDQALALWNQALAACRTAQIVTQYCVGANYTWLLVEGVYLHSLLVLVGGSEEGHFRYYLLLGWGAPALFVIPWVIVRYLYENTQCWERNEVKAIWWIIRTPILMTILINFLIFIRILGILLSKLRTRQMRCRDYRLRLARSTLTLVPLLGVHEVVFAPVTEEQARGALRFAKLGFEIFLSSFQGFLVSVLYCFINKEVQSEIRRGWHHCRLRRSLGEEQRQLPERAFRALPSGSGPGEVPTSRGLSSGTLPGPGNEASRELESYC

B1: Example 176 (peptide)
peptide: Y[Aib]EGT[αMeF]TSDV[Aib]I[αMeL]LD[Orn]K([AEEA-AEEA-γGlu-Lauroyl])AQ[Aib]EFI[dE][αMeY]LIEGGK([AEEA-AEEA-γGlu-Lauroyl])SSGAPPPS-NH2
modifications: N-terminus assumed
SMILES: CCCCCCCCCCCC(=O)N[C@@H](CCC(=O)NCCOCCOCC(=O)NCCOCCOCC(=O)NCCCC[C@H](NC(=O)CNC(=O)CNC(=O)[C@H](CCC(=O)O)NC(=O)[C@@H](NC(=O)[C@H](CC(C)C)NC(=O)[C@](C)(Cc1ccc(O)cc1)NC(=O)[C@@H](CCC(=O)O)NC(=O)[C@@H](NC(=O)[C@H](Cc1ccccc1)NC(=O)[C@H](CCC(=O)O)NC(=O)C(C)(C)NC(=O)[C@H](CCC(N)=O)NC(=O)[C@H](C)NC(=O)[C@H](CCCCNC(=O)COCCOCCNC(=O)COCCOCCNC(=O)CC[C@H](NC(=O)CCCCCCCCCCC)C(=O)O)NC(=O)[C@H](CCCN)NC(=O)[C@H](CC(=O)O)NC(=O)[C@H](CC(C)C)NC(=O)[C@](C)(CC(C)C)NC(=O)[C@@H](NC(=O)C(C)(C)NC(=O)[C@@H](NC(=O)[C@H](CC(=O)O)NC(=O)[C@H](CO)NC(=O)[C@@H](NC(=O)[C@](C)(Cc1ccccc1)NC(=O)[C@@H](NC(=O)CNC(=O)[C@H](CCC(=O)O)NC(=O)C(C)(C)NC(=O)[C@@H](N)Cc1ccc(O)cc1)[C@@H](C)O)[C@@H](C)O)C(C)C)[C@@H](C)CC)[C@@H](C)CC)[C@@H](C)CC)C(=O)N[C@@H](CO)C(=O)N[C@@H](CO)C(=O)NCC(=O)N[C@@H](C)C(=O)N1CCC[C@H]1C(=O)N1CCC[C@H]1C(=O)N1CCC[C@H]1C(=O)N[C@@H](CO)C(N)=O)C(=O)O
B2: Example 175 (peptide)
peptide: Y[Aib]EGT[αMePhe(2-F)]TSDV[Aib]I[αMeL]LD[Orn]K([AEEA-AEEA-γGlu-Lauroyl])AQ[Aib]EFI[dE][αMeY]LIEGGK([AEEA-AEEA-γGlu-Lauroyl])SSGAPPPS-NH2
modifications: N-terminus assumed
SMILES: CCCCCCCCCCCC(=O)N[C@@H](CCC(=O)NCCOCCOCC(=O)NCCOCCOCC(=O)NCCCC[C@H](NC(=O)CNC(=O)CNC(=O)[C@H](CCC(=O)O)NC(=O)[C@@H](NC(=O)[C@H](CC(C)C)NC(=O)[C@](C)(Cc1ccc(O)cc1)NC(=O)[C@@H](CCC(=O)O)NC(=O)[C@@H](NC(=O)[C@H](Cc1ccccc1)NC(=O)[C@H](CCC(=O)O)NC(=O)C(C)(C)NC(=O)[C@H](CCC(N)=O)NC(=O)[C@H](C)NC(=O)[C@H](CCCCNC(=O)COCCOCCNC(=O)COCCOCCNC(=O)CC[C@H](NC(=O)CCCCCCCCCCC)C(=O)O)NC(=O)[C@H](CCCN)NC(=O)[C@H](CC(=O)O)NC(=O)[C@H](CC(C)C)NC(=O)[C@](C)(CC(C)C)NC(=O)[C@@H](NC(=O)C(C)(C)NC(=O)[C@@H](NC(=O)[C@H](CC(=O)O)NC(=O)[C@H](CO)NC(=O)[C@@H](NC(=O)[C@](C)(Cc1ccccc1F)NC(=O)[C@@H](NC(=O)CNC(=O)[C@H](CCC(=O)O)NC(=O)C(C)(C)NC(=O)[C@@H](N)Cc1ccc(O)cc1)[C@@H](C)O)[C@@H](C)O)C(C)C)[C@@H](C)CC)[C@@H](C)CC)[C@@H](C)CC)C(=O)N[C@@H](CO)C(=O)N[C@@H](CO)C(=O)NCC(=O)N[C@@H](C)C(=O)N1CCC[C@H]1C(=O)N1CCC[C@H]1C(=O)N1CCC[C@H]1C(=O)N[C@@H](CO)C(N)=O)C(=O)O
B3: Example 180 (peptide)
peptide: Y[Aib]EGT[αMeF]TSDV[Aib]I[αMeL]LD[Orn]K([AEEA-AEEA-γGlu-C14 diacid])AQ[Aib]EFI[dE][αMeY]LIEGGK([AEEA-AEEA-γGlu-C14 diacid])SSGAPPPS-NH2
modifications: N-terminus assumed
SMILES: CC[C@H](C)[C@H](NC(=O)[C@H](CC(C)C)NC(=O)[C@](C)(Cc1ccc(O)cc1)NC(=O)[C@@H](CCC(=O)O)NC(=O)[C@@H](NC(=O)[C@H](Cc1ccccc1)NC(=O)[C@H](CCC(=O)O)NC(=O)C(C)(C)NC(=O)[C@H](CCC(N)=O)NC(=O)[C@H](C)NC(=O)[C@H](CCCCNC(=O)COCCOCCNC(=O)COCCOCCNC(=O)CC[C@H](NC(=O)CCCCCCCCCCCCC(=O)O)C(=O)O)NC(=O)[C@H](CCCN)NC(=O)[C@H](CC(=O)O)NC(=O)[C@H](CC(C)C)NC(=O)[C@](C)(CC(C)C)NC(=O)[C@@H](NC(=O)C(C)(C)NC(=O)[C@@H](NC(=O)[C@H](CC(=O)O)NC(=O)[C@H](CO)NC(=O)[C@@H](NC(=O)[C@](C)(Cc1ccccc1)NC(=O)[C@@H](NC(=O)CNC(=O)[C@H](CCC(=O)O)NC(=O)C(C)(C)NC(=O)[C@@H](N)Cc1ccc(O)cc1)[C@@H](C)O)[C@@H](C)O)C(C)C)[C@@H](C)CC)[C@@H](C)CC)C(=O)N[C@@H](CCC(=O)O)C(=O)NCC(=O)NCC(=O)N[C@@H](CCCCNC(=O)COCCOCCNC(=O)COCCOCCNC(=O)CC[C@H](NC(=O)CCCCCCCCCCCCC(=O)O)C(=O)O)C(=O)N[C@@H](CO)C(=O)N[C@@H](CO)C(=O)NCC(=O)N[C@@H](C)C(=O)N1CCC[C@H]1C(=O)N1CCC[C@H]1C(=O)N1CCC[C@H]1C(=O)N[C@@H](CO)C(N)=O
B4: Y-Aib-EGT-αMeF(2F)-TSD-4Pal-SI-αMeL-LD-Orn-K((2-[2-(2-Amino-ethoxy)-ethoxy]-acetyl)2-(γ-Glu)-CO-(CH2)12-CO2H)AQ-Aib-EFI-(D-Glu)-αMeY-LIEGGK((2-[2-(2-Amino-ethox … (peptide)
peptide: YXEGTXTSDXSIXLDXKAQXEFIXXLIEGGKSSGAPPPS
modifications: Aib2, αMeF(2F)6, 4Pal10, αMeL13, Orn16, Aib20, D-Glu24, αMeY25; acylated K17, K31 (groups as in name); C-terminal amide
B5: Y-Aib-EGT-αMeF(2F)-TSD-4Pal-SI-αMeL-LD-Orn-K((2-[2-(2-Amino-ethoxy)-ethoxy]-acetyl)2-(γ-Glu)-(10-(4-carboxyphenoxy)decanoyl))AQ-Aib-EFI-(D-Glu)-αMeY-LIEGGK((2-[ … (peptide)
peptide: B4 peptide
modifications: Aib2, αMeF(2F)6, 4Pal10, αMeL13, Orn16, Aib20, D-Glu24, αMeY25; acylated K17, K31 (groups as in name); C-terminal amide
B6: Y-Aib-EGT-αMeF(2F)-TSD-4Pal-SI-αMeL-LD-Orn-K((2-[2-(2-Amino-ethoxy)-ethoxy]-acetyl)2-(γ-Glu)-(4-(4-tert-butylphenyl)butanoyl))AQ-Aib-EFI-(D-Glu)-αMeY-LIEGGK((2- … (peptide)
peptide: B4 peptide
modifications: Aib2, αMeF(2F)6, 4Pal10, αMeL13, Orn16, Aib20, D-Glu24, αMeY25; acylated K17, K31 (groups as in name); C-terminal amide
B7: Y-Aib-EGT-αMeF(2F)-TSD-4Pal-SI-αMeL-LD-Orn-K((2-[2-(2-Amino-ethoxy)-ethoxy]-acetyl)2-CO-(CH2)12-CO2H)AQ-Aib-EFI-(D-Glu)-αMeY-LIEGGK((2-[2-(2-Amino-ethoxy)-ethox … (peptide)
peptide: B4 peptide
modifications: Aib2, αMeF(2F)6, 4Pal10, αMeL13, Orn16, Aib20, D-Glu24, αMeY25; acylated K17, K31 (groups as in name); C-terminal amide

What was measured:
Assay in all cases: cell-based or functional assay
[1] = target: T1, human glucose-dependent insulinotropic …
[2] = target: human glucagon-like peptide-1 (GLP-1) receptor (human, UniProt P43220 24-463)
human glucagon receptor = human glucagon receptor (human, UniProt P47871 26-477)

| Binder | cAMP EC50 [1] [nM] | cAMP Emax [1] [%] | cAMP EC50 [2] [nM] | cAMP Emax [2] [%] | cAMP EC50 (1.0% HSA) (human glucagon receptor) [nM] |
| --- | --- | --- | --- | --- | --- |
| B1 | 0.0485 | 89.3 | 0.298 | – | – |
| B2 | 0.0337 | 100 | 0.227 | 91.1 | – |
| B3 | 0.224 | 86.8 | 0.26 | – | – |
| Y[Aib]EGT[αMePhe(2-F)]TSDV[Aib]I[αMeL]LD[Orn]K([AEEA-AEEA-γGlu-Butanoyl(4-(4-tBuPh))])AQ[Aib]EFI[dE][αMeY]LIEGGK([AEEA-AEEA-γGlu-Butanoyl(4-(4-tBuPh))])SSGAPPPS-NH2 [Example 177] | 0.0433 | 113 | 0.178 | – | – |
| B4 | – | – | – | – | > 9950 |
| B5 | – | – | – | – | > 9950 |
| B6 | – | – | – | – | > 9950 |
| B7 | – | – | – | – | > 9950 |
